The text below walks through data of PMC3804511.

The target in assay [1] is T1, GST-Kic1(1-359)-His6 (wild type) (S. cerevisiae) (UniProt P38692).
T1 sequence: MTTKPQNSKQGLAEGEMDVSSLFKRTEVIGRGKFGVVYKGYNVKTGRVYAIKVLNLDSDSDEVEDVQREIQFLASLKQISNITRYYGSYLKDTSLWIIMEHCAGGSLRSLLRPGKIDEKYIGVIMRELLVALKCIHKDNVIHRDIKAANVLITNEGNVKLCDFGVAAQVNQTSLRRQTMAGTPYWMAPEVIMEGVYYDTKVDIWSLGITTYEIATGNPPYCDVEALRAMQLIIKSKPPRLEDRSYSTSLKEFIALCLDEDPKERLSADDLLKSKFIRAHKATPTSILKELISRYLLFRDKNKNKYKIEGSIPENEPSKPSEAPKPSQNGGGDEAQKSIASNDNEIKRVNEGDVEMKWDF

The target of assay [2] is T1, GST-Kic1(1-359)-His6 (wild type) (S. cerevisiae). This is another data set of the same source.

B1: Hym1-His6 (full length, GST cleaved) (natural protein)
chain: MFKKYKNQDLDMAFWWKKNPKTPSDYARLIIEQLNKFSSPSLTQDNKRKVQEECTKYLIGTKHFIVGDTDPHPTPEAIDELYTAMHRADVFYELLLHFVDLEFEARRECMLIFSICLGYSKDNKFVTVDYLVSQPKTISLMLRTAEVALQQKGCQDIFLTVGNMIIECIKYEQLCRIILKDPQLWKFFEFAKLGNFEISTESLQILSAAFTAHPKLVSKEFFSNEINIIRFIKCINKLMAHGSYVTKRQSTKLLASLIVIRSNNALMNIYINSPENLKLIMTLMTDKSKNLQLEAFNVFKVMVANPRKSKPVFDILVKNRDKLLTYFKTFGLDSQDSTFLDEREFIVQEIDSLPRIISSTTEVSNNNASSSNVASITSPSSVMNNQSSILTHSTSPDSR
B1 returned a half maximal activation (Kact) of Kic1 kinase activity (32P transferred to GST-Cbk1(673-756)-His6); Hym1 in 2-fold serial dilutions from 13 µM, Kic1 constant at 0.5 µM in assay [1] of 2 µM. In addition, the Kic1 kinase activity (reaction rate over 15 min on GST-Cbk1(673-756)-His6) with Hym1 relative to without Hym1 in assay [2] was > 5 fold.
